From article PMC7005713, “Revisiting the pH-gated conformational switch on the activities of HisKA-family histidine kinases” (Nature Communications, 2020)
Numbering of substitutions follows the chain as printed. In names and notes the source's numbering stands.

B1: RR468 wild type, bound to the phosphomimetic BeF3- (natural protein, Thermotoga maritima)
chain: MSKKVLLVDDSAVLRKIVSFNLKKEGYEVIEAENGQIALEKLSEFTPDLIVLDIMMPVMDGFTVLKKLQEKEEWKRIPVIVLTAKGGEEDESLALSLGARKVMRKPFSPSQFIEEVKHLLNE
modifications: phosphomimetic BeF3- bound to the phosphoacceptor D53
notes: Response regulator RR468 of Thermotoga maritima; BeF3- was formed in the crystallisation mixture from 30 mM NaF, 5 mM BeSO4 and 7 mM MgCl2; source: E. coli BL21-CodonPlus(DE3)-RIL, purified (70 °C heat step, HisTrap HP, TEV digestion, Superdex 75)
B2: RR468 D53A (natural protein, Thermotoga maritima)
chain: B1 chain with D53A
notes: Response regulator RR468 of Thermotoga maritima cloned in pET22b, with the phosphoacceptor Asp53 changed to Ala; lacks a Histag; source: E. coli BL21-CodonPlus(DE3)-RIL, purified (70 °C heat step, Mono Q, Superdex 75)
B3: HK853, complete cytoplasmic portion (DHp and CA domains), wild type (domain or fragment, Thermotoga maritima)
chain: VENVTESKELERLKRIDRMKTEFIANISHELRTPLTAIKAYAETIYNSLGELDLSTLKEFLEVIIDQSNHLENLLNELLDFSRLERKSLQINREKVDLCDLVESAVNAIKEFASSHNVNVLFESNVPCPVEAYIDPTRIRQVLLNLLNNGVKYSKKDAPDKYVKVILDEKDGGVLIIVEDNGIGIPDHAKDRIFEQFYRVDSSLTYEVPGTGLGLAITKEIVELHGGRIWVESEVGKGSRFFVWIPKDRAGEDNRQDN
notes: Sensor histidine kinase HK853 of Thermotoga maritima, complete cytoplasmic (catalytic) portion with DHp and CA domains; source: E. coli BL21-CodonPlus(DE3)-RIL, purified (70 °C heat step, HisTrap HP, TEV digestion, Superdex 200)
B4: HK853 H260A, complete cytoplasmic portion (domain or fragment, Thermotoga maritima)
chain: B3 chain with H29A
notes: ADP was added for crystallisation; Same limits as m1; source: E. coli BL21-CodonPlus(DE3)-RIL, purified (70 °C heat step, HisTrap HP, TEV digestion, Superdex 200)

What was measured:
[1] = molecular target: B3; assay: crystal structure; HK853 (10 mg/ml) and RR468 (7.5 mg/ml) with 4 mM ADP, 30 mM NaF, 5 mM BeSO4, 7 mM MgCl2; sitting drops at 21 °C; 1.8 M (NH4)2SO4, 0.1 M sodium citrate; four structures at pH 5.5, 6.5, 7 and 7.5; conditions: both partners purified
[2] = molecular target: B4; assay: crystal structure; HK853 H260A and RR468 D53A with 4 mM ADP; sitting drops at 21 °C; pH 7.5: 1.8 M (NH4)2SO4, 100 mM sodium citrate; pH 5.3: 1.2 M (NH4)2SO4, 100 mM Bis-Tris; two structures; conditions: both partners purified
[3] = molecular target: B3; assay: crystal structure; HK853 wild type and RR468 D53A with 4 mM ADP; sitting drops at 21 °C; pH 7: 1.8 M (NH4)2SO4, 100 mM sodium citrate; pH 5.3: 1.2 M (NH4)2SO4, 100 mM Bis-Tris; two structures; conditions: both partners purified
[4] = molecular target: the molecule itself; assay: crystal structure; HK853 (10 mg/ml) and RR468 (7.5 mg/ml) with 4 mM ADP, 30 mM NaF, 5 mM BeSO4, 7 mM MgCl2; sitting drops at 21 °C; 1.8 M (NH4)2SO4, 0.1 M sodium citrate; four structures at pH 5.5, 6.5, 7 and 7.5
[5] = molecular target: the molecule itself; assay: crystal structure; HK853 H260A and RR468 D53A with 4 mM ADP; sitting drops at 21 °C; pH 7.5: 1.8 M (NH4)2SO4, 100 mM sodium citrate; pH 5.3: 1.2 M (NH4)2SO4, 100 mM Bis-Tris; two structures

Binder: B1
binding result [1]: binds

Binder: B2
binding result [2]: binds | binding result [3]: binds

Binder: B3
binding result [4]: binds

Binder: B4
binding result [5]: binds
